The values below come from PMC11408749.

Experiment [1] deals with DNMT3BΔ214 (residues 215–853) D817G (human) (UniProt Q9UBC3). In words: AUC; sedimentation velocity, 40,000 rpm, 15 h, 20 C; 20 mM Tris-HCl pH 8.0, 300 mM NaCl, 1 mM TCEP, 5% glycerol; WT DNMT3BΔ214-3L at 2.5, 5.0 and 6.25 uM, mutant complexes at 5 uM; c(s) model in SEDFIT.
For experiment [2] the target is unchanged.
Experiment [3] has as its target DNMT3BΔ214 (residues 215–853) H814R (human) (UniProt Q9UBC3). In words: AUC; sedimentation velocity, 40,000 rpm, 15 h, 20 C; 20 mM Tris-HCl pH 8.0, 300 mM NaCl, 1 mM TCEP, 5% glycerol; WT DNMT3BΔ214-3L at 2.5, 5.0 and 6.25 uM, mutant complexes at 5 uM; c(s) model in SEDFIT.
Experiment [4] has the same target.
Experiment [5] deals with DNMT3BΔ214 (residues 215–853) V818M (human) (UniProt Q9UBC3). In words: AUC; sedimentation velocity, 40,000 rpm, 15 h, 20 C; 20 mM Tris-HCl pH 8.0, 300 mM NaCl, 1 mM TCEP, 5% glycerol; WT DNMT3BΔ214-3L at 2.5, 5.0 and 6.25 uM, mutant complexes at 5 uM; c(s) model in SEDFIT.
Experiment [6] has the same target.

Regarding “DNMT3BΔ214 (residues 215–853) D817G (from UniProt Q9UBC3 215-853) (domain or fragment)”, the percent of the population as hetero-tetramer (168 kDa peak, DNMT3B dimerised) in experiment [1] turned out to be 4.9%. In experiment [2], the MTase activity of the DNMT3BΔ214-3L complex (MTase-Glo, 0.2 uM complex, 36-bp dsDNA), percent of the WT complex is 5.43 % of WT.

Turning to “DNMT3BΔ214 (residues 215–853) H814R (from UniProt Q9UBC3 215-853) (domain or fragment)”, the percent of the population as hetero-tetramer (168 kDa peak, DNMT3B dimerised) in experiment [3] worked out at 1.5%. The MTase activity of the DNMT3BΔ214-3L complex (MTase-Glo, 0.2 uM complex, 36-bp dsDNA), percent of the WT complex in experiment [4] is 1.09 % of WT.

“DNMT3BΔ214 (residues 215–853) V818M (from UniProt Q9UBC3 215-853) (domain or fragment)” gave a percent of the population as hetero-tetramer (168 kDa peak, DNMT3B dimerised) in experiment [5] of 28.3%. Also, the MTase activity of the DNMT3BΔ214-3L complex (MTase-Glo, 0.2 uM complex, 36-bp dsDNA), percent of the WT complex in experiment [6] was 35.9 % of WT.
